Measured values taken from paper PMC7000413, “CDX-301: a novel medical countermeasure for hematopoietic acute radiation syndrome in mice” (Scientific Reports, 2020).

Target: the molecule itself
Assay: SEC; size exclusion chromatography of purified CDX-301; apparent molecular weight approximately 44,000 Daltons; conditions not given

B1: CDX-301, soluble recombinant human Fms-related tyrosine kinase 3 ligand (Flt3L) (ligand)
chain: TQDCSFQHSPISSDFAVKIRELSDYLLQDYPVTVASNLQDEELCGGLWRLVLAQRWMERLKTVAGSKMQGLLERVNTEIHFVTKCAFQPPPSCLRFVQTNISRLLQETSEQLVALKPWITRQNFSRCLELQCQPDSSTLPPPWSPRPLEATAP
modifications: glycoprotein with 2 potential N-linked (N100, N123) and 5 potential O-linked (S136, S137, T138, S144, T151) glycosylation sites; 3 intramolecular disulfide bonds
notes: human Flt3 ligand, the 153 N-terminal amino acids of the extracellular domain; 3 C-terminal residues of the extracellular domain, the transmembrane domain and the cytoplasmic domain eliminated; mature, secreted protein of 153 amino acids. numbers count on: the mature protein; Non-covalent homodimer; also called rhuFlt3L; Flt3 Ligand; source: manufactured under cGMPs by Celldex Therapeutics
stoichiometry N: 2
